# Values of other authors as cited in article PMC8410215.
# Target: Glu66 (UniProt position 148, FTKKMEENAKK)
# Conditions: folded protein with Glu66 buried in the interior; water molecules penetrate to form a small channel around the residue
substance,measurement,value
Staphylococcal nuclease V66E variant (Staphylococcus aureus; V66E),pKa,8.8
